Molecular target: Thermotoga maritima SecYEG complex, Se-Met derivatized (Thermotoga maritima) (UniProt Q9X1I9)
Test: crystal structure

Chain of Thermotoga maritima SecYEG complex, Se-Met derivatized (Thermotoga maritima) (Q9X1I9 whole entry, chain 1 of 3): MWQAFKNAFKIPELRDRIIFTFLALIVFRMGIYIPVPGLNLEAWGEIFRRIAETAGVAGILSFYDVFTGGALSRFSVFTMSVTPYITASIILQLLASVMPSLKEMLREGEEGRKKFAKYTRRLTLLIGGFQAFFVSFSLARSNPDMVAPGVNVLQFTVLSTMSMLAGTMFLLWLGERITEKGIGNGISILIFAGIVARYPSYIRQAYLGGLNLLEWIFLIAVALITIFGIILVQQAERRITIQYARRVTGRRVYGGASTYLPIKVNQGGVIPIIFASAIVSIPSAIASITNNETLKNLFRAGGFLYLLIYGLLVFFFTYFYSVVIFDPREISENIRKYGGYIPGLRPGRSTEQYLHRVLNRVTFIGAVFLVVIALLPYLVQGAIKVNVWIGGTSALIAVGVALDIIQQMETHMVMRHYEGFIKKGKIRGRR
Chain of Thermotoga maritima SecYEG complex, Se-Met derivatized (Thermotoga maritima) (P35874 whole entry, chain 2 of 3, further chain): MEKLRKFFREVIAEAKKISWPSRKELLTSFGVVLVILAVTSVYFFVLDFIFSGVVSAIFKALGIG
Chain of Thermotoga maritima SecYEG complex, Se-Met derivatized (Thermotoga maritima) (Q9WYU9 whole entry, chain 3 of 3, further chain): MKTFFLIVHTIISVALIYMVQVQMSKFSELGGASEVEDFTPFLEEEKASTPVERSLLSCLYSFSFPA

Substance: Thermotoga maritima SecA (from UniProt Q9X1R4 1-871) (enzyme)
- stoichiometry N (SecA per SecY complex): 1
